Like-named read-outs stand apart in the source and are kept apart here. Residues, ends and D or L forms follow the SMILES beside them. *: point of attachment. Doxorubicin(3'-N) = COc1cccc2c1C(=O)c1c(O)c3c(c(O)c1C2=O)C[C@@](O)(C(=O)CO)C[C@@H]3O[C@H]1C[C@H](N*)[C@H](O)[C@H](C)O1; Mal(CH2CH2O)6CH2CH2CO = O=C1C=CC(=O)N1CCOCCOCCOCCOCCOCCOCCC(=O)*; MaleimidoPEG4propanoyl = O=C1C=CC(=O)N1CCOCCOCCOCCOCCC(=O)*; Butanoyl(4-maleimido) = O=C1C=CC(=O)N1CCCC(=O)*; Propanoyl(3-maleimido) = O=C1C=CC(=O)N1CCC(=O)*; X1 = O=C1C=CC(=O)N1CCOCCOCCOCCC(=O)*; PEG6 = NCCOCCOCCOCCOCCOCCOCCC(=O)O; X2 = O=C1C=CC(=O)N1CCOCCOCCC(=O)*; PEG4 = NCCOCCOCCOCCOCCC(=O)O; PEG3 = NCCOCCOCCOCCC(=O)O; PEG2 = NCCOCCOCCC(=O)O
Test: Water solubility of freeze-dried compounds in water (observation and HPLC)

With `COc1cccc2c1C(=O)c1c(O)c3c(c(O)c1C2=O)C[C@@](O)(C(=O)CO)C[C@@H]3O[C@H]1C[C@H](N)[C@H](O)[C@H](C)O1` [C1: DOX] the solubility (freeze-dried compound dissolved in water, observation and HPLC test (>95%)) was less than 1 mg/mL.
For `COc1cccc2c1C(=O)c1c(O)c3c(c(O)c1C2=O)C[C@@](O)(C(=O)CO)C[C@@H]3O[C@H]1C[C@H](NC(=O)[C@H](CC(C)C)NC(=O)[C@H](CC(N)=O)NC(=O)[C@H](C)NC(=O)[C@H](C)NC(=O)[C@H](CCC(=O)O)NC(=O)CCOCCOCCN2C(=O)C=CC2=O)[C@H](O)[C@H](C)O1` [QHL-021] (X2-EAANL-{Doxorubicin(3'-N)}), the solubility was greater than 20 mg/mL.
Compound `COc1cccc2c1C(=O)c1c(O)c3c(c(O)c1C2=O)C[C@@](O)(C(=O)CO)C[C@@H]3O[C@H]1C[C@H](NC(=O)[C@H](CC(C)C)NC(=O)[C@H](CC(N)=O)NC(=O)[C@H](C)NC(=O)[C@H](C)NC(=O)[C@H](CCC(=O)O)NC(=O)CCOCCOCCOCCN2C(=O)C=CC2=O)[C@H](O)[C@H](C)O1` [QHL-022] (X1-EAANL-{Doxorubicin(3'-N)}) has a solubility greater than 20 mg/mL.
`COc1cccc2c1C(=O)c1c(O)c3c(c(O)c1C2=O)C[C@@](O)(C(=O)CO)C[C@@H]3O[C@H]1C[C@H](NC(=O)[C@H](CC(C)C)NC(=O)[C@H](CC(N)=O)NC(=O)[C@H](C)NC(=O)[C@H](C)NC(=O)[C@H](CCC(=O)O)NC(=O)CCOCCOCCOCCOCCN2C(=O)C=CC2=O)[C@H](O)[C@H](C)O1` [QHL-023] (MaleimidoPEG4propanoyl-EAANL-{Doxorubicin(3'-N)}) gave a solubility greater than 25 mg/mL.
In the case of `COc1cccc2c1C(=O)c1c(O)c3c(c(O)c1C2=O)C[C@@](O)(C(=O)CO)C[C@@H]3O[C@H]1C[C@H](NC(=O)[C@H](CC(C)C)NC(=O)[C@H](CC(N)=O)NC(=O)[C@H](C)NC(=O)[C@H](C)NC(=O)[C@H](CCC(=O)O)NC(=O)CCOCCOCCOCCOCCOCCOCCN2C(=O)C=CC2=O)[C@H](O)[C@H](C)O1` [QHL-024] ({Mal(CH2CH2O)6CH2CH2CO}-EAANL-{Doxorubicin(3'-N)}), the solubility is reported as greater than 30 mg/mL.
`COc1cccc2c1C(=O)c1c(O)c3c(c(O)c1C2=O)C[C@@](O)(C(=O)CO)C[C@@H]3O[C@H]1C[C@H](NC(=O)[C@H](CC(C)C)NC(=O)[C@H](CC(N)=O)NC(=O)[C@H](C)NC(=O)[C@H](C)NC(=O)[C@H](CC(=O)O)NC(=O)CCOCCOCCN2C(=O)C=CC2=O)[C@H](O)[C@H](C)O1` [QHL-033] (X2-DAANL-{Doxorubicin(3'-N)}) gave a solubility greater than 20 mg/mL.
Work on `COc1cccc2c1C(=O)c1c(O)c3c(c(O)c1C2=O)C[C@@](O)(C(=O)CO)C[C@@H]3O[C@H]1C[C@H](NC(=O)[C@H](CC(C)C)NC(=O)[C@H](CC(N)=O)NC(=O)[C@H](C)NC(=O)[C@H](C)NC(=O)[C@H](CC(=O)O)NC(=O)CCOCCOCCOCCN2C(=O)C=CC2=O)[C@H](O)[C@H](C)O1` [QHL-034] (X1-DAANL-{Doxorubicin(3'-N)}) yielded a solubility greater than 20 mg/mL.
In the case of `COc1cccc2c1C(=O)c1c(O)c3c(c(O)c1C2=O)C[C@@](O)(C(=O)CO)C[C@@H]3O[C@H]1C[C@H](NC(=O)[C@H](CC(C)C)NC(=O)[C@H](CC(N)=O)NC(=O)[C@H](C)NC(=O)[C@H](C)NC(=O)[C@H](CC(=O)O)NC(=O)CCOCCOCCOCCOCCN2C(=O)C=CC2=O)[C@H](O)[C@H](C)O1` [QHL-035] (MaleimidoPEG4propanoyl-DAANL-{Doxorubicin(3'-N)}), the solubility is reported as greater than 25 mg/mL.
`COc1cccc2c1C(=O)c1c(O)c3c(c(O)c1C2=O)C[C@@](O)(C(=O)CO)C[C@@H]3O[C@H]1C[C@H](NC(=O)[C@H](CC(C)C)NC(=O)[C@H](CC(N)=O)NC(=O)[C@H](C)NC(=O)[C@H](C)NC(=O)[C@H](CC(=O)O)NC(=O)CCOCCOCCOCCOCCOCCOCCN2C(=O)C=CC2=O)[C@H](O)[C@H](C)O1` [QHL-036] ({Mal(CH2CH2O)6CH2CH2CO}-DAANL-{Doxorubicin(3'-N)}) gave a solubility greater than 30 mg/mL.
For `COc1cccc2c1C(=O)c1c(O)c3c(c(O)c1C2=O)C[C@@](O)(C(=O)CO)C[C@@H]3O[C@H]1C[C@H](NC(=O)[C@H](CC(C)C)NC(=O)[C@H](CC(N)=O)NC(=O)[C@H](C)NC(=O)[C@H](C)NC(=O)[C@H](CCC(=O)O)NC(=O)CCOCCOCCNC(=O)CCN2C(=O)C=CC2=O)[C@H](O)[C@H](C)O1` [QHL-039] ({Propanoyl(3-maleimido)-PEG2}-EAANL-{Doxorubicin(3'-N)}), the solubility was greater than 20 mg/mL.
`COc1cccc2c1C(=O)c1c(O)c3c(c(O)c1C2=O)C[C@@](O)(C(=O)CO)C[C@@H]3O[C@H]1C[C@H](NC(=O)[C@H](CC(C)C)NC(=O)[C@H](CC(N)=O)NC(=O)[C@H](C)NC(=O)[C@H](C)NC(=O)[C@H](CC(=O)O)NC(=O)CCOCCOCCNC(=O)CCN2C(=O)C=CC2=O)[C@H](O)[C@H](C)O1` [QHL-042] ({Propanoyl(3-maleimido)-PEG2}-DAANL-{Doxorubicin(3'-N)}) showed a solubility greater than 20 mg/mL.
Work on `COc1cccc2c1C(=O)c1c(O)c3c(c(O)c1C2=O)C[C@@](O)(C(=O)CO)C[C@@H]3O[C@H]1C[C@H](NC(=O)[C@H](CC(C)C)NC(=O)[C@H](CC(N)=O)NC(=O)[C@H](C)NC(=O)[C@H](C)NC(=O)[C@H](CCC(=O)O)NC(=O)CCOCCOCCOCCNC(=O)CCN2C(=O)C=CC2=O)[C@H](O)[C@H](C)O1` [QHL-045] ({Propanoyl(3-maleimido)-PEG3}-EAANL-{Doxorubicin(3'-N)}) yielded a solubility greater than 20 mg/mL.
For `COc1cccc2c1C(=O)c1c(O)c3c(c(O)c1C2=O)C[C@@](O)(C(=O)CO)C[C@@H]3O[C@H]1C[C@H](NC(=O)[C@H](CC(C)C)NC(=O)[C@H](CC(N)=O)NC(=O)[C@H](C)NC(=O)[C@H](C)NC(=O)[C@H](CC(=O)O)NC(=O)CCOCCOCCOCCNC(=O)CCN2C(=O)C=CC2=O)[C@H](O)[C@H](C)O1` [QHL-048] ({Propanoyl(3-maleimido)-PEG3}-DAANL-{Doxorubicin(3'-N)}), the solubility was greater than 20 mg/mL.
`COc1cccc2c1C(=O)c1c(O)c3c(c(O)c1C2=O)C[C@@](O)(C(=O)CO)C[C@@H]3O[C@H]1C[C@H](NC(=O)[C@H](CC(C)C)NC(=O)[C@H](CC(N)=O)NC(=O)[C@H](C)NC(=O)[C@H](C)NC(=O)[C@H](CCC(=O)O)NC(=O)CCOCCOCCOCCOCCNC(=O)CCN2C(=O)C=CC2=O)[C@H](O)[C@H](C)O1` [QHL-051] ({Propanoyl(3-maleimido)-PEG4}-EAANL-{Doxorubicin(3'-N)}) showed a solubility greater than 25 mg/mL.
`COc1cccc2c1C(=O)c1c(O)c3c(c(O)c1C2=O)C[C@@](O)(C(=O)CO)C[C@@H]3O[C@H]1C[C@H](NC(=O)[C@H](CC(C)C)NC(=O)[C@H](CC(N)=O)NC(=O)[C@H](C)NC(=O)[C@H](C)NC(=O)[C@H](CC(=O)O)NC(=O)CCOCCOCCOCCOCCNC(=O)CCN2C(=O)C=CC2=O)[C@H](O)[C@H](C)O1` [QHL-054] ({Propanoyl(3-maleimido)-PEG4}-DAANL-{Doxorubicin(3'-N)}) showed a solubility greater than 25 mg/mL.
`COc1cccc2c1C(=O)c1c(O)c3c(c(O)c1C2=O)C[C@@](O)(C(=O)CO)C[C@@H]3O[C@H]1C[C@H](NC(=O)[C@H](CC(C)C)NC(=O)[C@H](CC(N)=O)NC(=O)[C@H](C)NC(=O)[C@H](C)NC(=O)[C@H](CCC(=O)O)NC(=O)CCOCCOCCOCCOCCOCCOCCNC(=O)CCN2C(=O)C=CC2=O)[C@H](O)[C@H](C)O1` [QHL-057] ({Propanoyl(3-maleimido)-PEG6}-EAANL-{Doxorubicin(3'-N)}) gave a solubility greater than 25 mg/mL.
Compound `COc1cccc2c1C(=O)c1c(O)c3c(c(O)c1C2=O)C[C@@](O)(C(=O)CO)C[C@@H]3O[C@H]1C[C@H](NC(=O)[C@H](CC(C)C)NC(=O)[C@H](CC(N)=O)NC(=O)[C@H](C)NC(=O)[C@H](C)NC(=O)[C@H](CC(=O)O)NC(=O)CCOCCOCCOCCOCCOCCOCCNC(=O)CCN2C(=O)C=CC2=O)[C@H](O)[C@H](C)O1` [QHL-060] ({Propanoyl(3-maleimido)-PEG6}-DAANL-{Doxorubicin(3'-N)}) has a solubility greater than 25 mg/mL.
In the case of `COc1cccc2c1C(=O)c1c(O)c3c(c(O)c1C2=O)C[C@@](O)(C(=O)CO)C[C@@H]3O[C@H]1C[C@H](NC(=O)[C@H](CC(C)C)NC(=O)[C@H](CC(N)=O)NC(=O)[C@H](C)NC(=O)[C@H](C)NC(=O)[C@H](CCC(=O)O)NC(=O)CCOCCOCCNC(=O)CCCN2C(=O)C=CC2=O)[C@H](O)[C@H](C)O1` [QHL-063] ({Butanoyl(4-maleimido)-PEG2}-EAANL-{Doxorubicin(3'-N)}), the solubility is reported as greater than 15 mg/mL.
`COc1cccc2c1C(=O)c1c(O)c3c(c(O)c1C2=O)C[C@@](O)(C(=O)CO)C[C@@H]3O[C@H]1C[C@H](NC(=O)[C@H](CC(C)C)NC(=O)[C@H](CC(N)=O)NC(=O)[C@H](C)NC(=O)[C@H](C)NC(=O)[C@H](CC(=O)O)NC(=O)CCOCCOCCNC(=O)CCCN2C(=O)C=CC2=O)[C@H](O)[C@H](C)O1` [QHL-066] ({Butanoyl(4-maleimido)-PEG2}-DAANL-{Doxorubicin(3'-N)}) gave a solubility greater than 15 mg/mL.
Work on `COc1cccc2c1C(=O)c1c(O)c3c(c(O)c1C2=O)C[C@@](O)(C(=O)CO)C[C@@H]3O[C@H]1C[C@H](NC(=O)[C@H](CC(C)C)NC(=O)[C@H](CC(N)=O)NC(=O)[C@H](C)NC(=O)[C@H](C)NC(=O)[C@H](CCC(=O)O)NC(=O)CCOCCOCCOCCNC(=O)CCCN2C(=O)C=CC2=O)[C@H](O)[C@H](C)O1` [QHL-069] ({Butanoyl(4-maleimido)-PEG3}-EAANL-{Doxorubicin(3'-N)}) yielded a solubility greater than 25 mg/mL.
Compound `COc1cccc2c1C(=O)c1c(O)c3c(c(O)c1C2=O)C[C@@](O)(C(=O)CO)C[C@@H]3O[C@H]1C[C@H](NC(=O)[C@H](CC(C)C)NC(=O)[C@H](CC(N)=O)NC(=O)[C@H](C)NC(=O)[C@H](C)NC(=O)[C@H](CC(=O)O)NC(=O)CCOCCOCCOCCNC(=O)CCCN2C(=O)C=CC2=O)[C@H](O)[C@H](C)O1` [QHL-072] ({Butanoyl(4-maleimido)-PEG3}-DAANL-{Doxorubicin(3'-N)}) has a solubility greater than 25 mg/mL.
`COc1cccc2c1C(=O)c1c(O)c3c(c(O)c1C2=O)C[C@@](O)(C(=O)CO)C[C@@H]3O[C@H]1C[C@H](NC(=O)[C@H](CC(C)C)NC(=O)[C@H](CC(N)=O)NC(=O)[C@H](C)NC(=O)[C@H](C)NC(=O)[C@H](CCC(=O)O)NC(=O)CCOCCOCCOCCOCCNC(=O)CCCN2C(=O)C=CC2=O)[C@H](O)[C@H](C)O1` [QHL-075] ({Butanoyl(4-maleimido)-PEG4}-EAANL-{Doxorubicin(3'-N)}) showed a solubility greater than 25 mg/mL.
Work on `COc1cccc2c1C(=O)c1c(O)c3c(c(O)c1C2=O)C[C@@](O)(C(=O)CO)C[C@@H]3O[C@H]1C[C@H](NC(=O)[C@H](CC(C)C)NC(=O)[C@H](CC(N)=O)NC(=O)[C@H](C)NC(=O)[C@H](C)NC(=O)[C@H](CC(=O)O)NC(=O)CCOCCOCCOCCOCCNC(=O)CCCN2C(=O)C=CC2=O)[C@H](O)[C@H](C)O1` [QHL-078] ({Butanoyl(4-maleimido)-PEG4}-DAANL-{Doxorubicin(3'-N)}) yielded a solubility greater than 25 mg/mL.

— patent publication US11319341B2, “Immune-stimulating soluble doxorubicin-conjugated complex” (Yafei (Shanghai) Biopharmaceutical Co., Ltd., priority 2016, dated 2022)
